Target: GST-PpROP4CA (G15V)
Assay: pull-down (MBP pull-down, anti-GST western blot, band quantification)
Conditions: three replicates; parent: est. 0.17; read off a plot

other: Protein ratio: 0.17
Substance: MBP-PpREN (wild type) R204L
